Tests used:
[1] = tested on: mTBI-induced memory deficit in mice; test: Novel object recognition (NOR) assay after mTBI; format: in vivo, mouse; conditions: ld-IL2 between day 6 and 12 post-mTBI
Experimental: The novel object recognition (NOR) assay was used to test the effect of mTBI and ld-IL2 treatment on cognition. On the training day, mice were allowed to explore two identical objects in an arena for 10 minutes. The next day, mice were allowed to explore the same space in the presence of the familiar object and a novel object to test long-term recognition memory. […] After mTBI, mice spent similar amounts of time exploring the familiar and the novel object, indicating a deficit in recognition memory (FIG. 12, mTBI+saline). […] Remarkably, the effect of ld-IL2 on memory deficit lasted for at least 20 days after the cessation of treatment.

Treg cells = test: Flow cytometry of T-cell subsets in peripheral blood, cervical LNs and spleen; format: in vivo, mouse
Source text: Blood, spleen, and cervical lymph node cell preparation, antibody staining, flow cytometry, and enzyme-linked immunosorbent assay (ELISA). Adult male DEREG and C57BL/6J mice received 15 daily injections of saline or IL2. About […] blood was collected from each mouse by submandibular bleeding. Mice used for blood collection were not used in the behavioral tests. Spleen and cervical LN tissues were ground and filtered through a sterile […] cell strainer. After lysis of red blood cells (420301; Biolegend), cells were pelleted and resuspended for antibody staining, ELISA, and ELISPOT assay. Live cells were counted by the Vi-CELL Automated Cell Viability Analyzer (Beckman, Chaska, MN).
About 2×10^6 suspension cells were stained with the following antibodies from Biolegend that recognizes mouse CD3e (clone 145-2C11), CD4 (clone GK1.5 and RM4-5), CD8 (clone 53-6.7), and CD25 (clone PC61). The percentages of individual cell phenotypes were determined using flow cytometric analysis. Data were collected with FACScan (Becton Dickinson, Franklin Lakes, NJ) and analyzed with CellQuest Pro (Becton Dickinson) and Rainbow X Alias (Cytek) softwares.

[2] = human, in vivo; cited from earlier work
[3] = 15 days of ld-IL2, C57BL/6J males

B1: ld-IL2: Recombinant mouse IL2 (carrier-free; Biolegend), given as daily low-dose i.p. injection (protein, UniProt P04351 21-169, looked up)
Interleukin-2: APTSSSTSSSTAEAQQQQQQQQQQQQHLEQLLMDLQELLSRMENYRNLKLPRMLTFKFYLPKQATELKDLQCLEDELGPLRHVLDLTQSKSFQLEDAENFISNIRVTVVKLKGSDNTFECQFDDESATVVDFLRRWIAFCQSIISTSPQ
[1]
  duration of the effect on memory deficit after cessation of treatment: at least 20 days
  novel object recognition deficit after mTBI: did not exhibit NOR deficit
Treg cells; 15 daily ld-IL2 injections, male DEREG mice
  percentage of EGFP+ Treg cells in the cervical LNs: increased significantly
Treg cells; [3]
  number and frequency of CD25+CD4+ Treg cells in the spleen: doubled
  number of CD8+ cells in the spleen: increased only slightly
Treg cells; after 5 daily ld-IL2 injections i.p., male DEREG mice
  increase of the frequency of EGFP+ Treg cells in the peripheral blood: more than 100%
Treg cells; daily ld-IL2, 15 days
  frequencies of CD4+ and CD3+ T cells in the blood or LNs: not altered
[2]
  tolerability in patients: well tolerated
